Results: patent US20100047893

How the values were obtained:
[1] = target: RBP16
[2] = target: histone H3, P68432
[3] = target: mixed bovine histones (Sigma)
[4] = target: GST

B1: GST-TbPRMT7 (protein)
chain: MPPKQHRHQKKDKNDNALQNTIGFVPPGATLASVSGYRPPDAFVNRIDRNIPVPARLRHTPVSLIEAVNDFHYAMMNDEERNNFYYEVLKKHVTPETGVLEIGAGSGLLSLMAAKLGAKWVVAVEGSEELAKLARENIRANNMEHQVKVLHMMSTELKSKHLPEPPDVLLSEIFGTMMLGESALDYVVDVRNRLLKPTTKIIPQFGTQYAVPIECDALHRISSVSGWRDLDLKHMMTLQDTVSIVFAKHYGIRMNSVNFRRLSDPIELFRVDFSSSNRNDIPRRKHFDVVAKESGTAHAMLFYWKVTDDEFVMSTDPEDTVNNFPRDMQWGQALQLLDASNGPLPTPVVFTEGKNYNFECNFSGDRVILHMQLCPESGNGEMTECEGKTT
- methylarginine derivatives by cation exchange chromatography after 3H-AdoMet reaction [1]: only monomethylargnine produced with either histone (B) or RBP16 (C) substrate
- protein arginine methyltransferase activity (3H-AdoMet, SDS-PAGE, fluorography) [2]: the recombinant enzyme possesses protein arginine methyltransferase activity and utilizes histone H3 as a substrate
- methylarginine derivatives by cation exchange chromatography after 3H-AdoMet reaction [3]: only monomethylargnine produced with either histone (B) or RBP16 (C) substrate

B2: recombinant TbPRMT7 (protein)
chain: B1 chain
- in vitro methylation (3H-AdoMet, SDS-PAGE, fluorography) [4]: Of the eight substrates tested, only GST was not methylated
- in vitro methylation [1]: Results indicate methylation occurred
- in vitro methylation [3]: Results indicate methylation occurred

B3: TbPRMT7-ProtC (protein)
chain: B1 chain
- in vitro methylation (3H-AdoMet, fluorography) [1]: TbPRMT7-ProtC strongly methylated both histones and RBP16
- in vitro methylation (3H-AdoMet, fluorography) [3]: TbPRMT7-ProtC strongly methylated both histones and RBP16
